Experimental data: doi:10.1101/2025.06.10.658938 (bioRxiv, 2025)
One block for each binder: values may come before it.

Legend:
Assay in all cases: split reporter
[1] = target: T1, calcitonin-like receptor (CLR), smBit-tagged Target construct (UniProt Q16602 23-461)
[2] = target: T1, calcitonin-like receptor (CLR), …; remark: listed apart in the source
[3] = target: sphingosine 1-phosphate receptor 1 (S1PR1), smBit-tagged Target construct (UniProt P21453 1-347)
Chain of sphingosine 1-phosphate receptor 1 (S1PR1), smBit-tagged Target construct (P21453 1-347): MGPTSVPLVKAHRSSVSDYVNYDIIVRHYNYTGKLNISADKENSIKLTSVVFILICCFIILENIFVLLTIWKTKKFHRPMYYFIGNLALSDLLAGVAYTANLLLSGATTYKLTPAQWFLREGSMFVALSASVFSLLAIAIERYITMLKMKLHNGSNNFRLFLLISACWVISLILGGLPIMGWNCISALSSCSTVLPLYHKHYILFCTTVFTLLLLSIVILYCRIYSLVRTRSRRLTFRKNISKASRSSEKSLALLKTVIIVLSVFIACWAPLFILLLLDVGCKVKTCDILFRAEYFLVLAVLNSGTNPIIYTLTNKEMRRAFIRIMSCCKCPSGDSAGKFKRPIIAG

T1 sequence (Q16602 23-461): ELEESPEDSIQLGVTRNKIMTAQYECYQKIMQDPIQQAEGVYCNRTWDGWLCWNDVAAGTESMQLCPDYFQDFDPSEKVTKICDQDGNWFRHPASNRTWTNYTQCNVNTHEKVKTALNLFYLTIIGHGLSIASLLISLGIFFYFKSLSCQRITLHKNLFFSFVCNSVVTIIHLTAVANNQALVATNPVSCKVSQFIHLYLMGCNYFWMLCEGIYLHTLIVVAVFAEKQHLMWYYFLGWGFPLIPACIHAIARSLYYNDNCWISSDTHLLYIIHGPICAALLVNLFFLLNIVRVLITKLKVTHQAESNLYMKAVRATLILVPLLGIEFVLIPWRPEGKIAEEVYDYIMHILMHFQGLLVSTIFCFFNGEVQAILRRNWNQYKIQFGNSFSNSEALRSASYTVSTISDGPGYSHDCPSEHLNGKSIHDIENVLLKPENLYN

Binder: LYPFIVVPITVTLLVTALVVWQSKRTEGIV (domain or fragment, UniProt O60894 119-148, looked up) [HALO-RAMP1-TM, LgBit-tagged Binder chimera]
- fold reduction of expression-normalised NanoBit relative to WT CLR-RAMP1 [2]: 2 fold

B2: CD69 V48F, V49F double mutant, LgBit-tagged Binder construct (natural protein)
chain: SENCFVAENSSLHPESGQENDATSPHFSTRHEGSFQVPVLCAVMNFFFITILIIALIALSVGQYNCPGQYTFSMPSDSHVSSCSEDWVGYQRKCYFISTVKRSWTSAQNACSEHGATLAVIDSEKDMNFLKRYAGREEHWVGLKKEPGHPWKWSNGKEFNNWFNVTGSDKCVFLKNTEVSSMECEKNLYWICNKPYK
- percent decrease of expression-normalised NanoBit relative to WT CD69 [3]: 30%

More lines, now with the values ahead:

- fold change of NanoBit luminescence over CLR+CD8a (1 ng Binder DNA) [1]: 13 ± 1.45 fold
- fold change of NanoBit luminescence over CLR+CD8a (20 ng Binder DNA) [1]: 2.16 ± 0.04 fold
- fold change of expression-normalised NanoBit over CLR+CD8a (1 ng Binder DNA) [2]: 2.7 ± 0.2 fold
- fold change of expression-normalised NanoBit over CLR+CD8a (5 ng Binder DNA) [2]: 2.9 ± 0.1 fold
- fold change of expression-normalised NanoBit over CLR+CD8a (10 ng Binder DNA) [2]: 2.7 ± 0.1 fold
- fold change of expression-normalised NanoBit over CLR+CD8a (20 ng Binder DNA) [2]: 2.1 ± 0.1 fold
B1: receptor activity-modifying protein 1 (RAMP1), LgBit-tagged Binder construct (natural protein)
chain: CQEANYGALLRELCLTQFQVDMEAVGETLWCDWGRTIRSYRELADCTWHMAEKLGCFWPNAEVDRFFLAVHGRYFRSCPISGRAVRDPPGSILYPFIVVPITVTLLVTALVVWQSKRTEGIV

- fold reduction of expression-normalised NanoBit relative to WT CLR-RAMP1 [2]: 2 fold
Binder: LYPFIVVPITVTLLVTALVVWQSKRTEGIV (domain or fragment, UniProt O60894 119-148, looked up) [InnTag5-RAMP1-TM, LgBit-tagged Binder chimera]
